Measured values taken from patent US5187153A, “Methods of treatment using Alzheimer's amyloid polypeptide derivatives” (Scios Nova Inc., priority 1990, dated 1993).
Like-named read-outs stand apart in the source and are kept apart here. Where no end group is shown, it is not given here.

Columns and labels:
Tryptase M = experiment: Protease inhibition, fluorogenic MCA substrate: tryptase M; format: biochemical, rat
Excerpt: (§1) The effects of A4 inhibitor on serine- and thiol- proteases were examined as follows: trypsin (17,000 units/mg from porcine pancreas), factor Xa and β-thrombin (gifts from Dr. Iwanagu, Kyushu University, Fukuoka, Japan), tryptase and chymase (both from rat peritoneal mast cells purified as described in Kido et al., Arch Biochem Biophys 239:436-443 (1985)), α-chymotrypsin (0.75 U/mg from bovine pancreas), elastase (33 U/mg from porcine pancreas), papain, cathepsin B (from rat liver purified as described in Towatari et al., Eur J Biochem 102:279-289 (1979)), plasmin (0.16 U/mg from human plasma), urokinase (0.75 U/mg from human kidney cells, Sigma Chemical Co.), tissue kallikrein (50 U/mg from porcine pancreas) or plasma kallikrein (9.4 U/mg from human plasma) was preincubated with various concentrations of the inhibitor in a total volume of 1.5 ml of buffer containing bovine serum albumin (0.1 mg/ml). […] The amount of 7-amino-4-methylcoumarin liberated from the substrates was determined fluorometrically with excitation and emission wavelengths of 380 nm and 460 nm, respectively, in a Hitachi fluorescence spectrophotometer, 650-10MS model, as reported in Kido et al. (1988), supra. Protein concentration was determined with bicinchoninic acid protein assay reagent as described by Smith et al., Anal. Biochem. 150:76-85 (1985). […]

Elastase = molecular target: T1, Elastase (Sus scrofa, UniProt P00772); experiment: Protease inhibition, fluorogenic MCA substrate: elastase; format: biochemical, porcine
T1 construct: elastase (33 U/mg from porcine pancreas); from tissue; host or cells: porcine pancreas
T1 sequence (P00772 27-266): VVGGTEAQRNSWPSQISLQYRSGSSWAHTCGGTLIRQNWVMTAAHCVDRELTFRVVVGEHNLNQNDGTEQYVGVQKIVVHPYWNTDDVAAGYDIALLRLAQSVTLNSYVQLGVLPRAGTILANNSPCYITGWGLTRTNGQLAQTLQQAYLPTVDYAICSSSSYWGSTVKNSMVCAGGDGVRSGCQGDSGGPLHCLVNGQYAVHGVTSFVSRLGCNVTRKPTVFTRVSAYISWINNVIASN
Excerpt: as §1

Papain = molecular target: T2, Papain (Carica papaya, UniProt P00784); experiment: Protease inhibition, fluorogenic MCA substrate: papain; format: biochemical
T2 sequence (P00784 134-345): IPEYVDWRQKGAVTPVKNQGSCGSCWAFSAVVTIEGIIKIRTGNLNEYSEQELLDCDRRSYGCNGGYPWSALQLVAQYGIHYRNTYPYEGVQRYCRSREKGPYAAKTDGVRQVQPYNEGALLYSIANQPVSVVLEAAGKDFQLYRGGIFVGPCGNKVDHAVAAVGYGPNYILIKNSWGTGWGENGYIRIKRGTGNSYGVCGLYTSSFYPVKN
Excerpt: as §1

Plasmin = molecular target: T3, Plasmin (Homo sapiens, UniProt P00747); experiment: Protease inhibition, fluorogenic MCA substrate: plasmin; format: biochemical
T3 construct: plasmin (0.16 U/mg from human plasma); from tissue; host or cells: human plasma
T3 sequence (P00747 581-810 limits assumed): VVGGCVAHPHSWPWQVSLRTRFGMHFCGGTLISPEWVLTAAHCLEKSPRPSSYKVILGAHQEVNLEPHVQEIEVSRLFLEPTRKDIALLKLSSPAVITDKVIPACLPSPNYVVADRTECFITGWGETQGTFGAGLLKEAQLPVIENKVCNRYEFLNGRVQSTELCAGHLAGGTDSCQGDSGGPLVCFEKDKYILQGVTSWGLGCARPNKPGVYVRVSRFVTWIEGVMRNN
T3 sequence (P00747 97-580 partner limits assumed): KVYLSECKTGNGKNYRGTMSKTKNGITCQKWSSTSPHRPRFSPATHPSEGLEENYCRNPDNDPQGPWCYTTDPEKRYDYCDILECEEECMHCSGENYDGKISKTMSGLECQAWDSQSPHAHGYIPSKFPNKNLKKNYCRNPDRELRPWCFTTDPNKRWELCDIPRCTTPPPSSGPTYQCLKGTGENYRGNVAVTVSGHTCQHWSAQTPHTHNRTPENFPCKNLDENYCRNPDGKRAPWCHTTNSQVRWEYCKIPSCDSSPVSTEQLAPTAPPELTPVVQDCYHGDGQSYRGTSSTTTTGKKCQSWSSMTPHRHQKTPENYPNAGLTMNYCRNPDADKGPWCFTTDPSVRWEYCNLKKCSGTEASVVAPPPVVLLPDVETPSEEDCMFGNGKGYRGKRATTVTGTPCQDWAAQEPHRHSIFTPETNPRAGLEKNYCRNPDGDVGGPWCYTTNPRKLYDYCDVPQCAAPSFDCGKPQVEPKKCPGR
Excerpt: as §1

Factor Xa = experiment: Protease inhibition, fluorogenic MCA substrate: factor Xa; format: biochemical; conditions: substrate Boc-Ile-Glu-Gly-Arg-MCA, pH 8.0, 25° C.
Excerpt: as §1

Cathepsin B = molecular target: T4, Cathepsin B (Rattus norvegicus, UniProt P00787); experiment: Protease inhibition, fluorogenic MCA substrate: cathepsin B; format: biochemical
T4 construct: cathepsin B (from rat liver purified as described in Towatari et al); from tissue; host or cells: rat liver
T4 sequence (P00787 80-339): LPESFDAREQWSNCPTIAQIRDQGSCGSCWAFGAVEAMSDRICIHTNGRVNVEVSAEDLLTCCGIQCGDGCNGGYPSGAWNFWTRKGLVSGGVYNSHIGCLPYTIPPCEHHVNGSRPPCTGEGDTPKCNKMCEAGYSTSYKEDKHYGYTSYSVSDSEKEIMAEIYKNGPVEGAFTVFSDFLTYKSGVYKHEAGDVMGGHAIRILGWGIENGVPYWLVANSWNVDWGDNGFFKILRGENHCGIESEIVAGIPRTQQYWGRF
Excerpt: as §1

trypsin [1] = molecular target: T5, trypsin (Sus scrofa, UniProt P00761); experiment: Protease inhibition, fluorogenic MCA substrate: trypsin; format: biochemical, porcine
T5 construct: trypsin (17,000 units/mg from porcine pancreas); from tissue; host or cells: porcine pancreas
T5 sequence (P00761 9-231): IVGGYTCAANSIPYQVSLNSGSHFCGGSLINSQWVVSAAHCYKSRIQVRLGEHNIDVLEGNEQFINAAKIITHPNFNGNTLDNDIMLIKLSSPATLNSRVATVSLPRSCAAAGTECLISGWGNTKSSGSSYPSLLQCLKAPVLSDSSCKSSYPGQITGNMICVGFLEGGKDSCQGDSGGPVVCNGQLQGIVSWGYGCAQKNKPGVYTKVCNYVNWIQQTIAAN
Excerpt: The effects of A4 inhibitor on serine- and thiol- proteases were examined as follows: trypsin (17,000 units/mg from porcine pancreas), factor Xa and β-thrombin (gifts from Dr. Iwanagu, Kyushu University, Fukuoka, Japan), tryptase and chymase (both from rat peritoneal mast cells purified as described in Kido et al., Arch Biochem Biophys 239:436-443 (1985)), α-chymotrypsin (0.75 U/mg from bovine pancreas), elastase (33 U/mg from porcine pancreas), papain, cathepsin B (from rat liver purified as described in Towatari et al., Eur J Biochem 102:279-289 (1979)), plasmin (0.16 U/mg from human plasma), urokinase (0.75 U/mg from human kidney cells, Sigma Chemical Co.), tissue kallikrein (50 U/mg from porcine pancreas) or plasma kallikrein (9.4 U/mg from human plasma) was preincubated with various concentrations of the inhibitor in a total volume of 1.5 ml of buffer containing bovine serum albumin (0.1 mg/ml). The buffers used were as follows: 0.1 M Tris-HCl, pH 7.5, for trypsin, plasmin and urokinase; 0.1 M Tris-HCl, pH 8.0, for chymase and α-chymotrypsin; 0.1 M Tris-HCl, pH 8.0, containing 10 mM CaCl2 for factor Xa and α-thrombin; 0.1 M Tris-HCl, pH 8.5, for tryptase M; 0.1 M Tris-HCl, pH 7.8, for plasma and tissue kallikrein; 0.1 M Tris-HCl, pH 7.0 for elastase; 50 mM acetate, pH 6.0, containing 1 mM EDTA and 4 mM cysteine for papain and cathepsin B. After preincubation for 5 min at 25° C., 7.5 μl of 20 mM concentrations of the fluorogenic substrate shown in Table I were added and the residual activity of each protease was measured in a quartz cuvette maintained thermostatically at 25° C. The amount of 7-amino-4-methylcoumarin liberated from the substrates was determined fluorometrically with excitation and emission wavelengths of 380 nm and 460 nm, respectively, in a Hitachi fluorescence spectrophotometer, 650-10MS model, as reported in Kido et al. (1988), supra. Protein concentration was determined with bicinchoninic acid protein assay reagent as described by Smith et al., Anal. Biochem. 150:76-85 (1985). […]

Chymase = molecular target: T6, Chymase (Rattus norvegicus, UniProt P09650); experiment: Protease inhibition, fluorogenic MCA substrate: chymase; format: biochemical
T6 construct: tryptase and chymase (both from rat peritoneal mast cells purified as described in Kido et al); from tissue; host or cells: rat peritoneal mast cells
T6 sequence (P09650 21-260): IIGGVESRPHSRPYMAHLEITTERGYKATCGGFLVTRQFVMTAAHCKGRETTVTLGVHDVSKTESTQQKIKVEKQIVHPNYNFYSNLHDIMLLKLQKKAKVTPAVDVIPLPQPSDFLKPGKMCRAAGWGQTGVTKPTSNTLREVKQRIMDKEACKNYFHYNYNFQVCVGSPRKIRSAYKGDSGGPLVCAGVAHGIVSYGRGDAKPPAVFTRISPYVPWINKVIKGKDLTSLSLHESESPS
Excerpt: as §1

Tissue kallikrein = molecular target: T7, Tissue kallikrein (Sus scrofa, UniProt P00752); experiment: Protease inhibition, fluorogenic MCA substrate: tissue kallikrein; format: biochemical, porcine
T7 construct: tissue kallikrein (50 U/mg from porcine pancreas); from tissue; host or cells: porcine pancreas
T7 sequence (P00752 8-246): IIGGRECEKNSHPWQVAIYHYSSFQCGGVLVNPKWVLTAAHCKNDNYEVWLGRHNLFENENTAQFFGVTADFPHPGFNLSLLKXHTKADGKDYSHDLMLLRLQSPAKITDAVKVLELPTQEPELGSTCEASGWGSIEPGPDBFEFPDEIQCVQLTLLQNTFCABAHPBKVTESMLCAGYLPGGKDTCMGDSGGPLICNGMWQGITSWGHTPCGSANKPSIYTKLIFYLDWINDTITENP
Excerpt: as §1

Plasma kallikrein = molecular target: T8, Plasma kallikrein (Homo sapiens, UniProt P03952); experiment: Protease inhibition, fluorogenic MCA substrate: plasma kallikrein; format: biochemical
T8 construct: plasma kallikrein (9.4 U/mg from human plasma); from tissue; host or cells: human plasma
T8 sequence (P03952 20-638): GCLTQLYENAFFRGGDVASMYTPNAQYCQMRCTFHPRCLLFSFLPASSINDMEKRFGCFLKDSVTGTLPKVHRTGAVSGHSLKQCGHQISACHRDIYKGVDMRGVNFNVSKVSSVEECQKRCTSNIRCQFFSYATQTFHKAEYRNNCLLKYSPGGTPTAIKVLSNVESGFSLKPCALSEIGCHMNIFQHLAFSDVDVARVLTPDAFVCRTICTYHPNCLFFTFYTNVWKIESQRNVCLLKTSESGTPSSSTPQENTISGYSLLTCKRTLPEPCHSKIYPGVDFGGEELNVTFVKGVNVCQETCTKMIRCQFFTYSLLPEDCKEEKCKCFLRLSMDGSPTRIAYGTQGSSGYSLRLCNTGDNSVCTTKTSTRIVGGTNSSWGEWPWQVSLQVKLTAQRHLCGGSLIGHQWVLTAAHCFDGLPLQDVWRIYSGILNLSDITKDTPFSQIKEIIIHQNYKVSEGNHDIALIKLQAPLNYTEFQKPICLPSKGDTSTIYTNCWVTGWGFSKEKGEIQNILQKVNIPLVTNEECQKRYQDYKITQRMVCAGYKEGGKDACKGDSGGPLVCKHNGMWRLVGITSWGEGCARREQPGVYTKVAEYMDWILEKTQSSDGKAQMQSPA
Excerpt: as §1

Urokinase = molecular target: T9, Urokinase (Homo sapiens, UniProt P00749); experiment: Protease inhibition, fluorogenic MCA substrate: urokinase; format: biochemical
T9 construct: urokinase (0.75 U/mg from human kidney cells, Sigma Chemical Co.); purchased Sigma Chemical Co; host or cells: human kidney cells
Excerpt: as §1

α-Thrombin = experiment: Protease inhibition, fluorogenic MCA substrate: α-thrombin; format: biochemical
Excerpt: as §1

α-chymotrypsin = molecular target: T10, α-chymotrypsin (Bos taurus, UniProt P00766); experiment: Protease inhibition, fluorogenic MCA substrate: α-chymotrypsin; format: biochemical, bovine
T10 construct: α-chymotrypsin (0.75 U/mg from bovine pancreas); from tissue; host or cells: bovine pancreas
Excerpt: as §1

Trypsin [2] = molecular target: Trypsin (Homo sapiens, UniProt P07477); experiment: Trypsin inhibition assay, release of p-nitroaniline from N-benzoyl-D-arginine-p-nitroaniline; format: biochemical; conditions: HPLC peaks of the purified inhibitor
Method: All 8 oligonucleotides encoding either the phoA or ompA fusions were mixed together and treated with ligase. […] The ligated constructs were then ligated into the NdeI-HindIII sites of the vector pTRP233. The ligated vectors were transfected into E. coli strain MC1061 and Amp^R colonies selected. […] Miniprep DNA was used to transfect strains W3110 and JE5505. Small scale cultures of each of the three strains were grown and induced with IAA overnight. Culture supernatants were examined for trypsin inhibitory activity. Trypsin is assayed for its ability to hydrolyze the synthetic substrate N-benzoyl-D-arginine-p-nitroaniline to release p-nitroaniline (pNA). The release of pNA as a function of time is easily monitored in a spectrophotomer and can be quantitated to measure trypsin activity. The inhibitor is detected in this assay by virtue of its ability to bind to trypsin and prevent hydrolysis of the substrate by trypsin. Inhibitory activity was detected in the culture medium for both ompA and phoA constructs in JE5505 but not W3110 or MC1061. Expression levels appeared to be higher with the phoA construct and so only this construct was used for subsequent experiments.

In the case of “A4i: 57 amino acid Kunitz-type serine protease inhibitor encoded by the 168 bp insert of λAPCP168i4”, the “inhibition of tryptase (in words)” value (Tryptase M) is reported as “strongly inhibits”, the Ki (Tryptase M; tryptase, unit inferred, read-out: dissociation constant Ki) is reported as 0.22 nM and the “inhibition of pancreatic elastase (in words)” value (Elastase) is reported as “did not inhibit”. For the same substance, the Ki (Elastase; Elastase, substrate Suc-Ala-Pro-Ala-MCA, pH 7.0, 25° C.) was greater than 1000 nM, the “inhibition of papain (in words)” value (Papain) was “did not inhibit” and the Ki (Papain; Papain, substrate Z-Phe-Arg-MCA, pH 6.0, 25° C.) was greater than 1000 nM. For the same substance, the “inhibition of plasmin (in words)” value (Plasmin) was “strongly inhibits”, the Ki (Plasmin; Plasmin, substrate Boc-Val-Leu-Lys-MCA, pH 7.5, 25° C.) was 0.075 nM and the Ki (Factor Xa) was 257 nM. The “inhibition of cathepsin B (in words)” value (Cathepsin B) was “did not inhibit”, the Ki (Cathepsin B; Cathepsin B, substrate Z-Phe-Arg-MCA, pH 6.0, 25° C.) was greater than 1000 nM and the “inhibition of pancreatic trypsin (in words)” value (trypsin [1]) was “inhibits”. The Ki (trypsin [1]; Trypsin, substrate Boc-Phe-Ser-Arg-MCA, pH 7.5, 25° C., read-out: Ki value) was 2.7 nM, the Ki (trypsin [1]; pancreatic trypsin, read-out: Ki) was 3 nM and the “inhibition of chymase (in words)” value (Chymase) was “did not inhibit”. The Ki (Chymase; Chymase, substrate Suc-Leu-Leu-Val-Tyr-MCA, pH 8.0, 25° C.) was greater than 1000 nM, the “inhibition of tissue kallikrein (in words)” value (Tissue kallikrein) was “inhibits” and the Ki (Tissue kallikrein; Tissue kallikrein, substrate Pro-Phe-Arg-MCA, pH 7.8, 25° C.) was 28.4 nM. For the same substance, the “inhibition of serum kallikrein (in words)” value (Plasma kallikrein) was “inhibits”, the Ki (Plasma kallikrein; Plasma kallikrein, substrate Z-Phe-Arg-MCA, pH 7.8, 25° C.) was 73.9 nM and the “inhibition of urokinase (in words)” value (Urokinase) was “did not inhibit”. The Ki (Urokinase; Urokinase, substrate Glt-Gly-Arg-MCA, pH 7.5, 25° C.) was greater than 1000 nM, the “inhibition of α-thrombin (in words)” value (α-Thrombin) was “did not inhibit” and the Ki (α-Thrombin; α-Thrombin, substrate Boc-Val-Pro-Arg-MCA, pH 8.0, 25° C.) was greater than 1000 nM. The “inhibition of α-chymotrypsin (in words)” value (α-chymotrypsin) was “inhibits” and the Ki (α-chymotrypsin; α-chymotrypsin) was 8.5 nM.
With “peak 4: major HPLC peak of the purified inhibitor; full length A4i with 3 disulfide bridges (EVCSEQAETGPCRAMISRWYFDVTEGKCAPFFYGGCGGNRNNFDTEEYCMAVCGSAM; disulfide (positions not given here); UniProt P05067 289-345, looked up, fragment)” the “activity in the trypsin inhibition assay” value (Trypsin [2]) was “active”.
